# In the nanobody polyreactivity screen of Harvey et al. (2022):
# Test: yeast display, Sf9 membrane polyspecificity reagent, FACS + sequencing; frameworks hold sequencing errors
# Method in brief: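 After 36–48 hours of galactose induction, yeast (Saccharomyces cerevisiae BJ5465) displaying a synthetic nanobody library were stained at 4 °C for 1 hour with 10% biotinylated, detergent-solubilized Sf9 membrane reagent. Streptavidin microbeads enriched the stained cells before FACS sorting into low and high (top ~1%) gates on anti-HA and streptavidin fluorescence. Each clone's polyreactivity label reflects its gate of origin.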
row,Sequence,polyreactivity (PSR sort gate)
1,QVQLVESGGGLVQAGGSLRLSCAASGFTFSTYAMGWYRQAPGKERELVSAISFSGGSTYYADSVKGRFTISRDNAKNTVYLQMNSLKPEDTAVYYCARAYTKYFEIYFIYALLYGHWGQGTQVTVSS,low polyreactivity
2,QVQLVESGGGLVQAGGSLRLSCAASGFTFSTYTMGWYRQAPGKERELVAAIRRSGDSTYYADSVKGRFTISRDNAKNTVYLQMNSLKPEDTAVYYCNAVRYRFERFDYWGQGTQVTVSS,high polyreactivity
3,QVQLVESGGGLVQAGGSLRLSCAASGFTFSVNDMGWYRQAPGKERELVAGISRGDNTNYADSVKGRFTISRDNAKNTVYLQMNSLKPEDTAVYYCAADFSLGLYRSWFGDYDYWGQGTQVTVSS,low polyreactivity
4,QVQLVESGGGLVQAGGSLRLSCAASGFTFSWYVMGWYRQAPGKERELVAAISSSGGSTYYADSVKGRFTISRDNAKNTVYLQMKSLKPEDTAVYYCSAGRPYGDGDYWGQGTQVTVSS,high polyreactivity
5,QVQLVESGGGLVQAGGSLRLSCAASGFTFSYNAMGWYRQAPGKERELVAAISSTGTSTYYADSVKGRFTISRDNAKNTVYLQMISLKPEDTAVYYCNAYGYDGYYAGRHGYWGQGTQVTVSS,low polyreactivity
6,QVQLVESGGGLVQAGGSLRLSCAASGFTFSYNAMGWYRQAPGKERELVAGISYGGGNTFYADSVKGRFTISRDNAKNTVYLQMNSLKPEDTAVYDCAAVNKSGTYVEYDYWGQGTQVTVSS,low polyreactivity
7,QVQLVESGGGLVQAGGSLRLSCAASGFTFSYYAMGWYRQAPGKERELVAAITTSGGRTYYADSVKGRFTISRDNAKNTVYLQMNSLKPEDPAVYYCAATYPRYYSGEFDYWGQGTQVTVSS,high polyreactivity
8,QVQLVESGGGLVQAGGSLRLSCAASGFTFSYYAMGWYRQAPGKERELVARISFSGTRTYYADSVKGRFTISRDNAKNTVYLQMNSLKPEDTAVYYCAARFGYVGITARYDYWGQGTQVTVSS,high polyreactivity
9,QVQLVESGGGLVQAGGSLRLSCAASGFTFSYYAMGWYRQAPGKERELVASISRSGNTYYADSVKGRFTISRDNAKNTVYLQMNSLKPEDTAVYYCAAKRKSYYSYNFDYWGQGTQVTVSS,high polyreactivity
10,QVQLVESGGGLVQAGGSLRLSCAASGFTFTAYAMGLYRKATGKERELVAGISRRGASTYYADSVKGRFTISRDYAKNTVYLQMNSLKPEDTAVYYCAALGKYIVAWSGDYWGQGTQVTVSS,low polyreactivity
11,QVQLVESGGGLVQAGGSLRLSCAASGFTFTDYAMGWYRQAPGKERELVAAITKGGGRTYYADSVKGRFTISRDNAKNTVYLQMNSLKPEDTAVYYCNARYQVPYGYWGQGTQVTVSS,low polyreactivity
12,QVQLVESGGGLVQAGGSLRLSCAASGFTFTENVMGWYRQAPGKEREFVAAITYIGGRTYYADSVKGRFTISRDNAKNSVYLQMNSLKPEDTAVYYCAADWAYYVASYLYYTFDYWGQGTQVTVSS,low polyreactivity
13,QVQLVESGGGLVQAGGSLRLSCAASGFTFTENVMGWYRQAPGKEREFVAAITYIGGRTYYADSVKGRFTISRDNAKNTVYLQMNSLKPEDTAVYYCAADWAYYVASYLYYTFDYWGQGTQVTVSS,low polyreactivity
14,QVQLVESGGGLVQAGGSLRLSCAASGFTFTGYAMGWYRQAPGKERELVAAISSSGGSTYYADSVKGRFTISRDNAKNTVYLQMNSLKPEDTAVYYCNARISDAHYQCNYFLVLYDYWGQGTQVTVSS,low polyreactivity
15,QVQLVESGGGLVQAGGSLRLSCAASGFTFTIYAMGSNRPAPGKERELVATISGRAGRTYYADSVKGRFTISRDNAKNTVYLQMNSLKPEDPAVYYCTAGQRRYPGLSYYWGQGTQVTVSS,high polyreactivity
16,QVQLVESGGGLVQAGGSLRLSCAASGFTFTLNTMGWYRQAPGKERELVAAISSGGRTYYADSVKGRFTISRDNAKNTVYLQMNSLKPEDTAVYYCAADYTWRFLRFGYWGQGTQVTVSS,high polyreactivity
17,QVQLVESGGGLVQAGGSLRLSCAASGFTFTPNAMGWYRQAPGKERELVAAISGSGGSTYYADSVKGRFTISRDNAKNTVYLQMNSLKPEDTAVYYCAKRRGVYTHWYDYWGQGTQVTVSS,high polyreactivity
18,QVQLVESGGGLVQAGGSLRLSCAASGFTFTPYAMGWYRQAPGKERELVAAITWRGGTYYADSVKGRFTISRDNAKNTVYLQMNSLKPEDTAVYYCAARVWRLYPSTYDYWGQGTQVTVSS,high polyreactivity
19,QVQLVESGGGLVQAGGSLRLSCAASGFTFTPYAMGWYRQAPGKERELVATISWSGGSTYADSVKGRFTISRDNAKNTVYLQMNSLKPEDTAVYYCAADVYGVHAPQSDYWTKYDYWGQGTQVTVSS,low polyreactivity
20,QVQLVESGGGLVQAGGSLRLSCAASGFTFTQNAAMGWYRQAPGKERELVGAISSGGRTYFADSVKGRFTISRDNAKNTVYLQMNSLKPEDTAVYYCAAVYRRSDFRGAKDGYYYWGQGTQVTVSS,low polyreactivity
21,QVQLVESGGGLVQAGGSLRLSCAASGFTFTRNAMGWSRPAPGKERELVAAISKRGGTTYYADSVKGRFTISRDNAKNTVYLQMNSLKPEDTAVYYCAKDGGITGGYWGQGTQVSVSS,high polyreactivity
22,QVQLVESGGGLVQAGGSLRLSCAASGFTFTRYAMGWYRQAPGKERELVAAISSSGGSTYYADSVKGRFTISRDNAKNTVYLQMNSLKPEDTAVYYCNKNWPRLYYYWGQGTQVTVSS,high polyreactivity

row,Sequence,polyreactivity (PSR sort gate)
1,QVQLVESGGGLVQAGGSLRLSCAASGFTFTRYAMGWYRQAPGKERELVAAITRSGSSTYYADSVKGRFTISRDNAKNTVYLQMNSLKQEDTAVYYCAARLHSPRYRYDYWGQGNQVTVSS,high polyreactivity
2,QVQLVESGGGLVQAGGSLRLSCAASGFTFTRYAMGWYRQAPGTERELVAAISRRGGSTYYADSVKGRFTISRDNAKNTVYLQMNSLKPEDTAVYYCAKDAGSRTVREFGYWGQGTQVTVSS,high polyreactivity
3,QVQLVESGGGLVQAGGSLRLSCAASGFTFTSNAMGWYRQAPGKERELVAAISRSGGRTYYADSVKGRFTISRDNAKNTVYLQLNSLKPEDTAVYYCNVRAEKRSYELYAYDYWGQGTQVTVSS,high polyreactivity
4,QVQLVESGGGLVQAGGSLRLSCAASGFTFTSYAMGWYIQAPGKERELVAAINRSGGSTTYADSVKGRFTISRDNAKNTVYLQMNSQKPEDTAVYYCAKAFRGHYWGQGTQVTVSS,high polyreactivity
5,QVQLVESGGGLVQAGGSLRLSCAASGFTFTTYAMGWYRQAPGKERELVARISRRSGSTYYADSVKGRFTISRDNAKNTVYLQMNSLKPEDTAVYYCNADVDRSTTIFDYWGQGTQVTVSS,high polyreactivity
6,QVQLVESGGGLVQAGGSLRLSCAASGFTFTWYAMGLYRQAPGKERELVAAISSGGGRTYYADSVKGRFTISRDNAKNTVYLQMNRLKPEDTAVYYCNAVAGGVYVDNGYDYWGQGTQVTVSS,high polyreactivity
7,QVQLVESGGGLVQAGGSLRLSCAASGFTFTYNAMGWYRQAPGKERELVAGITLGSRTNYADSVKGRFTISRDNAKNTVYLQMNSLKPEDTAVYYCAVRYYGGYGYWGQGTQVTVSS,high polyreactivity
8,QVQLVESGGGLVQAGGSLRLSCAASGFTFTYYSMGWYRQAPGKERELVARINSCGNTNYADSVKGRFTISRDNAKNTVYLQMNSLKPEDTAVYSCARDACNRYDYWGQGTQVTVSS,low polyreactivity
9,QVQLVESGGGLVQAGGSLRLSCAASGFTFVAYAMGWYRQAPGKERELVAAISRRGGTTYYADSVKGRFTISRDNEKNTVYLQMNSLKPEDTAVYYCNARSNFAFYRGNWAYDYWGQGTQVTVSS,high polyreactivity
10,QVQLVESGGGLVQAGGSLRLSCAASGFTFVDYDMGWYRQAPGKERELVAAITYSGGSTSYADSVKGRFTISRDYAKNTVYLQMNSLKPEDTAVYYCNTEGFLSAVYAFGYWGQGTQVTVSS,low polyreactivity
11,QVQLVESGGGLVQAGGSLRLSCAASGFTFVDYMGWYRQAPGKERELVAAIDNSGGGTYYADSVKGRFTISRDNAKNTVYLQMNSLKPEDTAVYYRYAYTFYIYEDVLYVQGDYYWGQGTQVTVSS,low polyreactivity
12,QVQLVESGGGLVQAGGSLRLSCAASGFTFVGNAMGWYRQAPGKERELVATITSGGNTKYADSVKGRFTISRDNAKNTVYLQMNSLKPEDTAVYYCAAAKYNYRRFNYWGQGTQVTVSS,low polyreactivity
13,QVQLVESGGGLVQAGGSLRLSCAASGFTFVGYAMGWYRQAPGKERELVAAITRRGGSTYYADSVKGRFTISRDNAKNTVYLQMNSLKPEDTGVYDCNKASYRISVPRYDYWGQGTQVTVSS,high polyreactivity
14,QVQLVESGGGLVQAGGSLRLSCAASGFTFVINDMGWYRQAPGKERELVADITSGGDTYYADSVKGRFTISRDNAKNTVYLQMNSLTPEDTAVYYCAADIYPDWIYLLYGYWGHGTQVTVSS,low polyreactivity
15,QVQLVESGGGLVQAGGSLRLSCAASGFTFVNHAMGWYRQAPGKERELVAAISGGRTTNYADSVKGRFTISRDNAKNTVYLQMNSLKPEDTAVYYCAARRYFGLWYFWYDYWGQGTQVTVSS,high polyreactivity
16,QVQLVESGGGLVQAGGSLRLSCAASGFTFVNYVMGWYRQAPGKERELVAAISRSGGSTYYADSVKGRFTISRDNAKNTVYLQMNSLIPEDTAVYYCAARWFYRAGFNYWGQGTQVTVSS,high polyreactivity
17,QVQLVESGGGLVQAGGSLRLSCAASGFTFVPNTMGWYRQAPGKERELVARIRWRGGSTYYADSVKGRFTISRDNAKNTVYLQMNSLKPEDTAVYYCNAVRGYDARPYSEVYHGEKYYYWGQGTQVTVSS,low polyreactivity
18,QVQLVESGGGLVQAGGSLRLSCAASGFTFVPYAMGWYRPAPGKEREFVAAITSSGTTNYADSVKGRFTISRDNAKNTVYLQMNSLKPEDTAVYYCAADPDSGQVPFDYWGQGTQVTVSS,low polyreactivity
19,QVQLVESGGGLVQAGGSLRLSCAASGFTFVQYAMGWYRPAPGKERELVATITNGGGSTYYADSVKGRFTISRDNAKNTVYLQMNSLKPEDPAVYYCNADSGGRGAPTSTYDYWGQGTQVTLSS,low polyreactivity
20,QVQLVESGGGLVQAGGSLRLSCAASGFTFVRYAMGWYRQAPGKEREFVAAITWSGGGTYYADSVKGRFTISRDNAKNTVYLQMNSLKPEDTAVYYCAADRRAYGGGYWGQGTQVTVSS,high polyreactivity
21,QVQLVESGGGLVQAGGSLRLSCAASGFTFVRYAMGWYRQAPGKERELVAAISSSGGSTYYADSVKGRFTISRDNAKNTVYLQMNSLKPEDTAVYYCAARPYARYSRNIDGYEYWGQGTQVTVSS,high polyreactivity
